Among the data in patent CN113999308A (SHENZHEN PEOPLES HOSPITAL, dated 2022) are Kd values, retold here.

The target of this experiment is T1, CDH17蛋白细胞外段1~3结构域 (recombinant CDH17 extracellular domains 1-3) (human, UniProt Q12864 23-340, limits assumed).
T1 construct: domain: 细胞外段1~3 结构域; purified on Ni resin, so probably His-tagged, but the tag is not described; also called CDH17 1-3D; CDH17 1~3结构域蛋白
T1 sequence (looked up): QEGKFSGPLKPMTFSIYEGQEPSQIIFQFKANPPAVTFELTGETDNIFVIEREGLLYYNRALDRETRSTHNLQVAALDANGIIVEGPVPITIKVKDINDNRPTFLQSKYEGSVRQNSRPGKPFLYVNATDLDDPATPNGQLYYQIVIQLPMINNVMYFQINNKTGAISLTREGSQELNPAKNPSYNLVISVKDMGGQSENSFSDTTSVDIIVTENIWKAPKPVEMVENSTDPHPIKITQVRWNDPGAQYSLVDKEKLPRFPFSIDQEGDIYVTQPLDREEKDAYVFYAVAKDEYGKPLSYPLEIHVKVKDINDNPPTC
Description: SPR (Biacore), purified antigen on the chip, nanobody as analyte (Fig. 5E).

B1: Nb193纳米抗体 (Nb193 nanobody) (VHH)
VHH: AVQLVESGGGLVQAGGSLRLSCVASGSTLERYAVYWYRQPPGKERELVAGIMRGGNINYADSVKGRFTISKDYAKNTLILQMNSLKPEDTAVYYCNAGGSRFGYWGQGTQVTVSS
notes: From a naive alpaca phage display nanobody library; Expressed in E. coli with HA tag and His tag, about 15 kDa; the tag piece is put last only for want of better; not shown: HA tag and His tag fused to the nanobody (pET-14B, E. coli)
B1: the Kd worked out at 17.6 nM.

By Kd is commonly meant the concentration at which binding is half-saturated.
